From paper PMC2892007, “The Terminal Immunoglobulin-Like Repeats of LigA and LigB of Leptospira Enhance Their Binding to Gelatin Binding Domain of Fibronectin and Host Cells” (PLoS ONE, 2010)

Experiments:
Details in all cases: both partners purified
[1] = target: T1, Gelatin-binding domain of human plasma fibronectin (human); experiment: SPR
T1 construct: also called GBD; source: bought: Sigma-Aldrich

[2] = target: T1, Gelatin-binding domain of human plasma …; experiment: ITC; GBD in the cell (1 ml), Lig protein in the syringe (250 µl), 25 injections of 10 µl, 25°C, Tris buffer with 100 µM CaCl2; independent binding model
[3] = target: T1, Gelatin-binding domain of human plasma …; experiment: ELISA
[4] = target: T1, Gelatin-binding domain of human plasma …; experiment: SEC-MALS; mixtures of Lig protein and GBD on Superose 6, 20 mM HEPES, 150 mM NaCl, pH 7.5
[5] = target: T1, Gelatin-binding domain of human plasma …; experiment: ITC; GBD in the cell (1 ml), Lig protein in the syringe (250 µl), 25 injections of 10 µl, 25°C, Tris buffer with 100 µM CaCl2; independent binding model; remark: listed apart in the source

B1: LigAVar11 (domain or fragment)
chain: FQVTPAKVVSIEVIPNNISFAKGNSYQFKATGIYTDHSEADITEQVTWSSSNPKIASVENTFGSAGLVNTTNIGSTNITAKLSDTVSGASVLNVTPALLRY
modifications: biotin (in the ELISA)
With B1 the koff [1] was 0.00599 s⁻¹ and the kon [1] was 1190 M⁻¹ s⁻¹.

B2: Histidine-tagged LigBCen2R (domain or fragment)
chain: TATYNSISENIDITVSAATLSSISISPINTNINATVSKQFFAVGTYSDGTKADLTSSVTWSSSNKSQAKVSNASKTKGLVTGIASGNSIITATYGSVSGNTILTVNKTDTI
Binder B2 has a koff [1] of 0.00923 s⁻¹, a kon [1] of 4830 M⁻¹ s⁻¹ and a Kd [2] of 1880 ± 90 nM. For the same binder, the dH [2] was -29.2 ± 3.58 kcal/mol and the “stoichiometry N” value [2] was 0.995 ± 0.01.

B3: LigAVar10 (domain or fragment)
chain: LSVTAAELIEIVLDPTSSHKAKGLTENFKATGVFTDNSTKDITDQVTWKSSKTAYAKISNATGSKRVVNAISKGTSHISATLGSISSANATFQVTPAKVV
modifications: biotin (in the ELISA)
For B3, the koff [1] was 0.00506 s⁻¹ and the kon [1] was 1190 M⁻¹ s⁻¹.

B4: LigAVar13 (domain or fragment)
chain: ITISLSSISKTKGSTHQFKATGKFENGAEIDLTELVTWSSSNPTVVSISNVDDERGLATALSVGSSKISVDYNSISSSIDFEVTPEILASIKTEP
modifications: biotin (in the ELISA)
B4 showed a koff [1] of 0.0053 s⁻¹ and a kon [1] of 510 M⁻¹ s⁻¹.

B5: LigBCen7'-12 (domain or fragment)
chain: AEITNTSGSKGITNTLTPGSSEISAALGSIKSSKVILKVTPAQLISIAVTPINPSVAKGLIRQFKATGTYTDHSVQDVTALATWSSSNPRKAMVNNVTGSVTTVATGNTNIKATIDSISGSSVLNVTPALLTSIEITPTINSITHGLTKQFKATGIFSDKSTQNLTQLVTWISSDPSKIEIENTSGKKGIATASKLGSSNIKAVYKFIQSSPIPITVTDLKLKSITISPSSSSIAKGLTQQFKAIGTFIDGSEQEITNLVTWYSSKSDVAPINNAANEKGLATALSIGSSDIYAIYNSISSNKINFNVSAATLDSIKINPVNNNIAKGLTQQYTALGVYSDSTIQDISDSVTWSSSNSSSISISNSTETKGKATALQIGNSKITATYNSISENIDITVSAATLSSISISPINTNINTTVSKQFFAVGTYSDGTKADLTSSVTWSSSNQSQAKVSNASETKGLVTGIASGNPTIIATYGSVSGNTILTVNKTDTI
modifications: biotin (in the ELISA)
With B5 the Kd [3] was 49 ± 7 nM, the “stoichiometry N” value [4] was 3.03 GBD: Lig and the Kd [5] was 49 ± 2 nM. For the same binder, the dH [5] was -95.7 ± 3.85 kcal/mol and the “stoichiometry N” value [5] was 0.33 ± 0.02 Lig: GBD.

B6: LigAVar7'-8 (domain or fragment)
chain: LTVSNTNAKRGLGSTLKQGTVKVTASMGGIEDSVDFTVTQATLTSIEVSPTRASIAKGMTQKFTATGIFTDHSKKNITEQVTWKSSSKALSMLNAPGEEGTGKAIAVGKHYYYCNLRKTFRENRYYRYSRNSYFN
modifications: biotin (in the ELISA)
In the case of B6, the koff [1] is reported as 0.00501 s⁻¹, the kon [1] is reported as 750 M⁻¹ s⁻¹ and the “stoichiometry N” value [4] is reported as 0.95 GBD: Lig. For the same binder, the Kd [5] was 6750 ± 110 nM, the dH [5] was -28.6 ± 5.14 kcal/mol and the “stoichiometry N” value [5] was 1.01 ± 0.04 Lig: GBD.
